This passage reports Ka and inhibition of HPV16 PsV entry into HeLa cells (luciferase), IC50 results from publication PMC6775479.

Assay [1] deals with L1-II peptide (HPV16 L1 residues 493-505) (human papillomavirus type 16). Description: ITC; peptide (1 mM) in 50 mM phosphate buffer pH 7.4 in the sample cell; 3HP-β-LG or β-LG (50 μM) in the titration needle; 18°C, 2 μl injections. For orientation: In ITC the heat of successive injections is recorded.
Assay [2] addresses L1-I peptide (HPV16 L1 residues 474-488) (human papillomavirus type 16). The description is as above.
Assay [3] concerns the target HPV16 L1 protein (human papillomavirus type 16) (UniProt P03101).
Chain of UniProt P03101 (P03101 whole entry): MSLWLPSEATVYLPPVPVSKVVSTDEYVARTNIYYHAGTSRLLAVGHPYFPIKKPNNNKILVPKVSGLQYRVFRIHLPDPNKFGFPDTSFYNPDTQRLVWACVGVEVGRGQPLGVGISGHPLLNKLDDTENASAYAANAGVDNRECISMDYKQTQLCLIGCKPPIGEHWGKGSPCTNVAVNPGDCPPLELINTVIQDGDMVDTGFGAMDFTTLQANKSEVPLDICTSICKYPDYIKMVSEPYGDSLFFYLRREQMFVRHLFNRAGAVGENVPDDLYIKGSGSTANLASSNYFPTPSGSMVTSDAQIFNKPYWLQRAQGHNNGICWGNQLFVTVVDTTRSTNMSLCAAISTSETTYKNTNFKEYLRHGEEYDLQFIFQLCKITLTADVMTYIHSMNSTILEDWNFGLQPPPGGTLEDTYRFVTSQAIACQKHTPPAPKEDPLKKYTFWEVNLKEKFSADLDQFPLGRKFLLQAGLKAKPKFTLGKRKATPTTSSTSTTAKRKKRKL

As for “3-hydroxyphthalic anhydride (3HP)-modified bovine beta-lactoglobulin (from UniProt P02754 17-178)”, the Ka came to 104000 M⁻¹ in assay [1] and 231000 M⁻¹ in assay [2]. In assay [3], this substance came in with an inhibition of HPV16 PsV entry into HeLa cells (luciferase), IC50 of 0.59 µg/mL.
